Test results as given in patent publication US20230112123A1 (published 2023).

Biological target: T1, human CD70 (human, UniProt P32970 1-193)
T1 chain: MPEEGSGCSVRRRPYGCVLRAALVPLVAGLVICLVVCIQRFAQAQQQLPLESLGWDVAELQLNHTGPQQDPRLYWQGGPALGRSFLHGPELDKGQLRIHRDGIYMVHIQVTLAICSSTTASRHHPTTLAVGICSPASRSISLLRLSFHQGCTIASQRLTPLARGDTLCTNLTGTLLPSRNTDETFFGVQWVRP
Assay: FACS blocking of CD27(ECD)-Fc binding; CHO-CD70 cells

| Binder | IC50 [nM] |
| --- | --- |
| Cusatuzumab (antibody, V domains shown) VH: EVQLVESGGGLVQPGGSLRLSCAASGFTFSVYYMNWVRQAPGKGLEWVSDINNEGGTTYYADSVKGRFTISRDNSKNSLYLQMNSLRAEDTAVYYCARDAGYSNHVPIFDSWGQGTLVTVSS VL: QAVVTQEPSLTVSPGGTVTLTCGLKSGSVTSDNFPTWYQQTPGQAPRLLIYNTNTRHSGVPDRFSGSILGNKAALTITGAQADDEAEYFCALFISNPSVEFGGGTQLTVLG | 2.39 |
| IMM40H (antibody, V domains shown) VH: QVQLVQSGAEVKKPGASVKVSCKVSGYTFTDSALHWVRQAPGKGLEWMGVISTYDGDTDYNQKFKGRVTMTEDTSTDTAYMELSSLRSEDTAVYYCARRGYYDYDWFPYWGQGTLVTVSA VL: DIVLTQSPASLAVSPGQRATITCRASKSVSASGYSFLHWYQQKPGQPPKLLIYLASNLESGVPARFSGSGSGTDFTLTINPVEANDTANYYCQHSRELPPTFGGGTKVEIKR | 2.04 |
